B1: RAB11A (parent)
chain: AVPTDEARAFAEKNGLSFIETSAL

Variants of: B1
Assay: protein stability index of a GFP-peptide fusion (GPS, HEK-293T) (PSI 1-6); higher = more stable
Details: c terminus: a fixed tail appended
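Also: lentivirally expressed fusions sorted by FACS into six bins by GFP to DsRed ratio, PSI derived from sequencing read proportions per bin multiplied by bin number.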

In order of falling protein stability index:
1. AVPTDEARADAEKNGLSFIETSAL [F10D]  3.86
2. AVPTDEARAEAEKNGLSFIETSAL [F10E]  3.81
3. AVPTDEAREFAEKNGLSFIETSAL [A9E]  3.13
4. AVPTDEARAQAEKNGLSFIETSAL [F10Q]  3.08
5. AVPTDEARTFAEKNGLSFIETSAL [A9T]  2.96
6. AVPTDEARATAEKNGLSFIETSAL [F10T]  2.91
7. AVPTDEARANAEKNGLSFIETSAL [F10N]  2.9
8. AVPTDEARASAEKNGLSFIETSAL [F10S]  2.84
9. AVPDDEARAFAEKNGLSFIETSAL [T4D]  2.84
10. AVPQDEARAFAEKNGLSFIETSAL [T4Q]  2.84
11. AVPLDEARAFAEKNGLSFIETSAL [T4L]  2.79
12. AVPTDEARDFAEKNGLSFIETSAL [A9D]  2.78
13. AVPTDEARAAAEKNGLSFIETSAL [F10A]  2.76
14. AVPEDEARAFAEKNGLSFIETSAL [T4E]  2.75
15. AVPTDEARAYAEKNGLSFIETSAL [F10Y]  2.71
16. AVPTDEARQFAEKNGLSFIETSAL [A9Q]  2.62
17. AVPTDEARGFAEKNGLSFIETSAL [A9G]  2.57
18. AVPTDEARAHAEKNGLSFIETSAL [F10H]  2.54
19. AVPTTEARAFAEKNGLSFIETSAL [D5T]  2.52
20. AVPTDQARAFAEKNGLSFIETSAL [E6Q]  2.52
21. AVPGDEARAFAEKNGLSFIETSAL [T4G]  2.52
22. AVPTDEARARAEKNGLSFIETSAL [F10R]  2.49
23. AVPTDEARAVAEKNGLSFIETSAL [F10V]  2.46
24. AVPTDEARNFAEKNGLSFIETSAL [A9N]  2.46
25. AVPTDEARVFAEKNGLSFIETSAL [A9V]  2.45
26. AVPTDEARLFAEKNGLSFIETSAL [A9L]  2.45
27. AVPTDEARAIAEKNGLSFIETSAL [F10I]  2.44
28. AVPTDEARACAEKNGLSFIETSAL [F10C]  2.43
29. AVPPDEARAFAEKNGLSFIETSAL [T4P]  2.43
30. AVPTLEARAFAEKNGLSFIETSAL [D5L]  2.41
31. AVPTDEARAKAEKNGLSFIETSAL [F10K]  2.37
32. AVPTDEARAWAEKNGLSFIETSAL [F10W]  2.36
33. AVPTEEARAFAEKNGLSFIETSAL [D5E]  2.35
34. AVPTDEARMFAEKNGLSFIETSAL [A9M]  2.35
35. AVPTDEARSFAEKNGLSFIETSAL [A9S]  2.35
36. AVPTDEARKFAEKNGLSFIETSAL [A9K]  2.34
37. AVPTHEARAFAEKNGLSFIETSAL [D5H]  2.33
38. AVPTDEARALAEKNGLSFIETSAL [F10L]  2.33
39. AVPTDEARIFAEKNGLSFIETSAL [A9I]  2.33
40. AVPTDEARAPAEKNGLSFIETSAL [F10P]  2.31
41. AVPIDEARAFAEKNGLSFIETSAL [T4I]  2.28
42. AVPTDEARAMAEKNGLSFIETSAL [F10M]  2.27
43. AVPTDEARWFAEKNGLSFIETSAL [A9W]  2.27
44. AVPTDRARAFAEKNGLSFIETSAL [E6R]  2.25
45. AVPTDEARAGAEKNGLSFIETSAL [F10G]  2.24
46. AVPTDNARAFAEKNGLSFIETSAL [E6N]  2.24
47. YVPTDEARAFAEKNGLSFIETSAL [A1Y]  2.23
48. AVPTPEARAFAEKNGLSFIETSAL [D5P]  2.23
49. AVPSDEARAFAEKNGLSFIETSAL [T4S]  2.23
50. AVPNDEARAFAEKNGLSFIETSAL [T4N]  2.22
51. AVPTSEARAFAEKNGLSFIETSAL [D5S]  2.19
52. AVPTDDARAFAEKNGLSFIETSAL [E6D]  2.18
53. AVPTYEARAFAEKNGLSFIETSAL [D5Y]  2.15
54. AVPTDMARAFAEKNGLSFIETSAL [E6M]  2.15
55. AVPTDCARAFAEKNGLSFIETSAL [E6C]  2.13
56. AVPMDEARAFAEKNGLSFIETSAL [T4M]  2.12
57. AVPTDEARYFAEKNGLSFIETSAL [A9Y]  2.11
58. AVPYDEARAFAEKNGLSFIETSAL [T4Y]  2.11
59. AVPTDEARFFAEKNGLSFIETSAL [A9F]  2.1
60. AVPTDSARAFAEKNGLSFIETSAL [E6S]  2.09
61. AVPTDEARPFAEKNGLSFIETSAL [A9P]  2.08
62. AVPTQEARAFAEKNGLSFIETSAL [D5Q]  2.07
63. AVPTDWARAFAEKNGLSFIETSAL [E6W]  2.07
64. AVPFDEARAFAEKNGLSFIETSAL [T4F]  2.06
65. AVPTVEARAFAEKNGLSFIETSAL [D5V]  2.05
66. AVPTIEARAFAEKNGLSFIETSAL [D5I]  2.04
67. AVPADEARAFAEKNGLSFIETSAL [T4A]  2.04
68. AVPRDEARAFAEKNGLSFIETSAL [T4R]  2.02
69. AVPTREARAFAEKNGLSFIETSAL [D5R]  1.99
70. AVPTDEARHFAEKNGLSFIETSAL [A9H]  1.97
71. AVPTDEARRFAEKNGLSFIETSAL [A9R]  1.96
72. AVPTNEARAFAEKNGLSFIETSAL [D5N]  1.95
73. AVPTGEARAFAEKNGLSFIETSAL [D5G]  1.94
74. AVPTDAARAFAEKNGLSFIETSAL [E6A]  1.94
75. AVPWDEARAFAEKNGLSFIETSAL [T4W]  1.93
76. AVPVDEARAFAEKNGLSFIETSAL [T4V]  1.93
77. AVPTFEARAFAEKNGLSFIETSAL [D5F]  1.92
78. AVPTCEARAFAEKNGLSFIETSAL [D5C]  1.89
79. AVPCDEARAFAEKNGLSFIETSAL [T4C]  1.89
80. AVPTDYARAFAEKNGLSFIETSAL [E6Y]  1.88
81. AVPTDHARAFAEKNGLSFIETSAL [E6H]  1.87
82. AVPTDGARAFAEKNGLSFIETSAL [E6G]  1.87
83. AVPTDVARAFAEKNGLSFIETSAL [E6V]  1.83
84. AVPTDEARCFAEKNGLSFIETSAL [A9C]  1.82
85. AVPTDKARAFAEKNGLSFIETSAL [E6K]  1.8
86. AVPTKEARAFAEKNGLSFIETSAL [D5K]  1.79
87. AVPTAEARAFAEKNGLSFIETSAL [D5A]  1.77
88. AVPTDPARAFAEKNGLSFIETSAL [E6P]  1.74
89. AVPTDIARAFAEKNGLSFIETSAL [E6I]  1.73
90. AVPTDFARAFAEKNGLSFIETSAL [E6F]  1.73
91. AVPTMEARAFAEKNGLSFIETSAL [D5M]  1.72
92. AVPTDTARAFAEKNGLSFIETSAL [E6T]  1.71
93. AVPTDLARAFAEKNGLSFIETSAL [E6L]  1.6
94. AVPTWEARAFAEKNGLSFIETSAL [D5W]  1.49
